Target: the molecule itself
Experiment: SDS-PAGE (SDS-resistant dimer band) with LC-MS/MS of the excised bands; lyophilised pure binase on 15% SDS-PAGE with 0.1% SDS; 12 and 25 kDa bands, both detected by anti-binase immunoblot and in-gel RNase activity; 25 kDa band not fully lost with 2% SDS or 4-8 M urea; bands trypsin-digested and identified by LC-MS/MS

B1: binase (guanyl-preferring RNase secreted by Bacillus pumilus), wild-type enzyme designated as "native" binase (enzyme, Bacillus pumilus (former B. intermedius), UniProt P00649 54-162, looked up)
chain: AVINTFDGVADYLIRYKRLPDNYITKSQASALGWVASKGNLAEVAPGKSIGGDVFSNREGRLPSASGRTWREADINYVSGFRNADRLVYSSDWLIYKTTDHYATFTRIR
notes: binase, secreted RNase of Bacillus pumilus (former B. intermedius); single chain of 109 amino acids, molecular weight 12.3 kDa; secreted enzyme isolated from the medium; binase has no sulfhydryl groups; also called B. intermedius RNase; wild-type binase; source: isolated from the medium of B. pumilus 7P, purified (MonoS), lyophilised; also unpurified B. pumilus culture fluid
stoichiometry N: 2

— article PMC4281067, “New Insight into Secreted Ribonuclease Structure: Binase Is a Natural Dimer” (PLoS ONE, 2014)
